Results on two molecules are retold here after patent US11945858B2, “Antibodies and antibody fragments against HNAV1.7 channel and their use in pain and cancer indications” (NATIONAL RESEARCH COUNCIL OF CANADA, priority 2018, dated 2024).

One data set concerns the target hNav1.7 channels (Homo sapiens, UniProt Q15858, W1161R). Put plainly: Patch-clamp whole-cell recordings in hNav1.7-HEK293 cells. Type of data set: cell-based. (In general: Patch clamp records ionic current or voltage across a cell membrane.)
Another data set relates to glioblastoma U87MG cells. Put plainly: Soft agar assay, U87MG. To be noted: mAb 1 μM.
Data set [1] has as its system CFA-induced thermal hyperalgesia. Put plainly: Hargreaves Model of Hyperalgesia in rats. It is filed as in vivo, rat. To be noted: for Maximum percentage of the effect (% Effect; % MPE): time of maximum (1, 2 or 4 h). The procedure:
Hargreaves Model of Hyperalgesia in rats. Rats aged 4-6 weeks (weight range, 180-220 g) were used for intraplantar (ipl) administrations of various antibodies and evaluation of their efficacy in the Hargreaves model of inflammatory pain. Chronic inflammatory pain is induced by injecting a low volume (50 μl) of complete Freund's adjuvant (CFA; heat-killed M. tuberculosis—Sigma, St. Louis, Mo.—suspended in oil:saline 2:1 emulsion) into the right hind paw. The paw withdrawal latency in response to the application of a radiant stimulus onto the plantar surface of both right and left paw was measured using the plantar Analgesia Meter equipment for paw stimulation (IITC Life Science, Woodland Hills, Calif.). The time taken by the animal to respond by licking or flicking its paw is interpreted as positive response (paw withdrawal latency). After 48 h of the CFA injection, the baseline for latency paw withdrawal was measured and the mAbs tested. […] A cut-off time (20 sec) is established at the end of which the heat source shuts off automatically to avoid tissue damage. Animals were kept (randomized) one per cage and staff performing pain experiments are blinded to the content of injectable compounds. Percentage of maximum possible effect (% MPE) was calculated using the formula % MPE=(Test Latency−Baseline Latency)×100/(Cut-off−Baseline Latency).

For a further data set, the system named is VHH FC5. Put plainly: Surface Plasmon Resonance of mAbs, FC5 control. It is filed as binding. To be noted: SPR; 25 °C. The procedure: (§1) Surface Plasmon Resonance of mAbs. FC5 and FC5DIE3IR proteins were SEC purified using a Superdex 75 column (GE Healthcare) connected to an AKTAPurifier (GE Healthcare) in HBS-EP+ running buffer (10 mM HEPES, pH 7.4, containing 150 mM NaCl, 3 mM EDTA and 0.05% P20) at a flow rate of 1 ml/min. Monomeric eluted peaks were used to flow over Fc-capture 3A8 mAb surfaces. To prepare the 3A8 mAb surfaces, approximately 6000 RUs of anti-mouse IgG (GE Healthcare) was first immobilized on CM5 Series S sensor chips (GE Healthcare) at pH 5.0, using standard amine coupling methods previously reported (Hussack et al., 2011) and according to the manufacturer's instructions (GE Healthcare). HBS-EP running buffer used for SPR experiments. The mAb 3A8 was captured on the anti-mouse IgG surface using 10 μg/ml of mAb, 30 sec contact time and flow rate of 10 μl/min. IMAC-purified DI-D VHH was passed through a Superdex 75 (GE Healthcare) column for SEC purification in HBS-EP buffer (10 mM HEPES, pH 7.4, containing 150 mM NaCl, 3 mM EDTA and 0.005% P20), connected to an AKTAPurifier (GE Healthcare) at a flow rate of 1 ml/min. Test binding experiments of FC5 control and FC5DIE3IR involved flowing 1 μM concentrations of SEC-pure material over the mAb surface at a flow rate of 30 μl/min for 5 min. Surfaces could be regenerated using 10 mM glycine, pH 1.7, with a 120 sec pulse at 20 μl/min. All SPR experiments were evaluated with Biacore T200 Software v 3.0. For kinetic analysis, single cycle kinetic analysis was used by flowing a range of FC5DIE3IR concentrations (320 nM-20 nM) at a flow rate of 30 μl/min, with 600 sec contact time and 1200 sec dissociation. Regeneration conditions were the same as above. Data were fit to a 1:1 binding model and analyzed using the Biacore T200 Software v3.0.
(§2) Surfaces were regenerated by washing with running buffer (HBS-EP). Data were analyzed with BIAevaluation 4.1 software as described (Hussack et al., 2011) and affinities determined using the steady state binding model.
(§3) Surface Plasmon Resonance (SPR) for monoclonal antibodies.

A further data set relates to CHO-3E7. Put plainly: Cell-ELISA on live CHO-3E7 cells. Type of data set: cell-based, Chinese hamster. To be noted: hybridoma supernatant, OD450 nm. The procedure: Cell-ELISA. Sterile 96-well plates (Costar #3595) were pre-treated with 50 μl/well of branched polyethyleneimine (PEI, Sigma Cat #408727) at 25 μg/ml in PBS for 30 min at room temperature. PEI was removed and CHO-3E7 or hNAv1.7-CHO (ChanTest cat #CT4003) were seeded at 6×10^5 cells per well in FreeStyle F17 Expression Medium (Gibco Cat #A1383501) and incubated overnight at 37° C., 5% CO2. Microplates were blocked with Starting block (Thermofisher Cat #37538) for 30 min at room temperature, and 50 μl of hybridoma supernatants were added and incubated at 4° C. for 3 h. Plates were washed 5 times with PBS and incubated for one hour at 4° C. with 50 μl of secondary antibody HRP-conjugated F(ab′)2 goat anti-mouse IgG (H+L) (Jackson Immunoresearch #115-036-062) diluted 1/5000 in blocking buffer. After 10 washes with PBS, 50 μl of TMB substrate solution (Pierce Cat #34021) was added and further incubated for 60 min at room temperature. Twenty-five μl/well of stop solution ([…] 1M) was added and OD450 nm measurements were done using a microplate reader (Spectramax 340 PC, Molecular Devices).
On the technique in general: An ELISA detects its analyte on a solid surface through an enzyme-linked reagent.

The target in data set [2] is T1, FC5DIE3IR (Homo sapiens, UniProt Q15858).
T1 construct: The supernatant was collected and loaded on a 5 ml MabSelect™ SuRe™ column; made in house; host or cells: CHO-3E7 (transient, pTT5 vector), purified from supernatant
Put plainly: Hydrogen-Deuterium Exchange Mass Spectrometry (HDX-MS). As to conditions: labelling 1, 10 and 60 min. It is filed as binding.

In data set [3] the target is T1, FC5DIE3IR. Put plainly: Surface Plasmon Resonance of mAbs, FC5DIE3IR. It is filed as binding. As to the method:
as §1, §2, §3

Data set [4] relates to overlapping antigen-peptides derived from DIE3IR. Put plainly: ELISA of mAbs on overlapping antigen-peptides derived from DIE3IR. To be noted: peptides coated 100-500 ng/well. Type of data set: binding, human. The procedure: The peptides were custom-synthesized (Biomatik) and tested for antibody binding by ELISA. […] The wells were blocked with 1% BSA in TBS-T for 30 min and then incubated with 1:1000 dilution of anti-hNav1.7 mAb at room temperature (RT) for one hr. Following three TBS-T washes (3×5 min), mAb binding to peptides was detected by incubating with HRP-conjugated anti-mouse Fc antibody for 90 min at RT in TBS-T. The bound antibody was detected with SureBlue™ TMB reagent kit (KPL) by colorimetric measurement at 450 nm according to manufacturer's instructions.
To identify the epitope for mAb 3A8 on DIE3IR, seven overlapping antigen-peptides were generated (FIG. 15A) and an ELISA was performed to determine the binding between these peptides and the various mAb (FIGS. 15C to 15I).

The test system of data set [5] is OD1-evoked Nav1.7-mediated spontaneous pain behaviours. Type of data set: in vivo, mouse. To be noted: 100 μg, injected 60 minutes prior to OD1; 20 min after the injection.
The test system of data set [6] is glioblastoma U87MGvIII cells. Put plainly: Soft agar assay, U87MGvIII. As to conditions: mAb 1 μM; FIG. 24C.
Data set [7] relates to ovarian cancer SKOV-3 cells. Put plainly: Soft agar assay, SKOV-3. To be noted: mAb 1 μM; FIG. 24D.
Where [8] appears, read: −20 mV, after antibody application (1 μM).

“Also recorded” adds a separate entry of the source.

Chain of VHH FC5 (as listed by the source): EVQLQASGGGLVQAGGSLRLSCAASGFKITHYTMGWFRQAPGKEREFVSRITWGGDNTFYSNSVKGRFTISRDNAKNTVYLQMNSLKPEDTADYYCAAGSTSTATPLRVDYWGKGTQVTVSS

B1: 2G11: anti-hNav1.7 mouse monoclonal antibody, IgG2a, k; heavy chain SEQ ID NO: 117, light chain SEQ ID NO: 119 (antibody, V domains shown)
VH: QVQLQQPGAELVKPGASVKLSCKASGYTFTTYWMHWVKQRPGQGLEWIGEINPSNGRANYNEKFKSKATLTVDKSSSTAYMQLSSLTSEDSAVYYCLRSLGYFDYWGQGTTLTVSSAKTTAPSVYPLAPG
VL: DVVMTQSPLSLPVSLGDQASISCRSSQSLVHSNGNTYLHWYLQKAGQSPKFLIYKVSNRFSGVPDRFSGSGSGTDFTLKISRVEAEDLGVYFCSQSTHVPYTFGGGTKLEIKRADAAPTVSIFPPSS
modifications: Heavy chain of the 2G11 antibody without leader sequence; Light chain of the 2G11 antibody without leader sequence
For the molecule B1, the “Voltage-dependence of activation (shift V1/2 activation)” value with hNav1.7 channels (1 μM) was −4.7 mV. For the same molecule, in the data set with hNav1.7 channels (1 μM), the “Voltage-dependence of the steady-state fast inactivation (shift V1/2 inactivation)” value is given as −13.9 mV. Moreover, in the data set with hNav1.7 channels (2 μM, single time-course recording of the figure), the “Onset time of the effect (exponential fit of the current decay, T)” value came to 57 s. In the data set with hNav1.7 channels (example recordings, 1-3 μM), the “Effect on hNav1.7 currents (in words)” value is listed as “reduced the hNav1.7 currents”. For the same molecule, the “Fast inactivation (time constant)” value with hNav1.7 channels (setting [8]) stood at 0.81 ms. Besides, the Time-to-peak with hNav1.7 channels (setting [8]) turned out to be 0.87 ms. The “Reduction of colony formation” value in the data set with glioblastoma U87MG cells (different experiment, FIG. 24B) was 60%. For the same molecule, the “Percentage of effect after injection (on left paw withdrawal)” value in data set [1] (100 μg intraplantar, 0 h) is given as 0%; in data set [1] (100 μg intraplantar, 1 h) it was 27.98% ± 7.17; in data set [1] (100 μg intraplantar, 2 h), 22.02% ± 2.08; in [1] (100 μg intraplantar, 4 h), 25.80% ± 2.82. The Latency paw withdrawal in data set [1] (100 μg intraplantar, 1 h) amounted to 8.80 ± 1.02 s; in data set [1] (100 μg intraplantar, 2 h) it was 7.86 ± 0.33 s; in [1] (100 μg intraplantar, 4 h), 8.45 ± 0.44 s; in data set [1] (intraplantar, mAbs 100 μg, 11E5 dose not stated, time not given), 8.45 ± 0.44 s. In addition, the “Maximum percentage of the effect (% Effect; % MPE)” value in data set [1] (100 μg intraplantar) is recorded as 27.98±7.17%. For the same molecule, in the data set on VHH FC5, the “Binding to FC5 control (comment, in words)” value was “did not bind; also recorded: No binding”. In addition, the “ELISA on live cells (duplicates) CHO-3E7” value with CHO-3E7 (duplicate 1) is −0.027; in the data set with CHO-3E7 (duplicate 2), −0.025. For the same molecule, the “Stabilization of FC5DIE3IR in response to mAb binding (residues, differential HDX-MS)” value with FC5DIE3IR [2] is “Asn121-Tyr134”. Also, the “ka” value with FC5DIE3IR [3] was found to be 9560 M⁻¹ s⁻¹. Further, the “kd” value with FC5DIE3IR [3] was determined as 0.000526 s⁻¹. Also, in the data set with FC5DIE3IR [3] (Fc-captured mAb, FC5-DIE3IR flowed, 25 °C), the “Rmax (RU)” value is reported as 84 RU. Also, the “Binding to FC5DIE3IR (comment, in words)” value with FC5DIE3IR [3] (SPR, 25 °C) is “strong and specific binding; also recorded: strongly and specifically bound”. In addition, in data set [4], the “Peptide in which the binding motif resides / that is bound” value is given as “pep #40a”. Besides, in [5], the “Time spent in pain behaviors (saline plus OD1 = 100%)” value is on record as 63.47±4.78%.

B2: 1H5: anti-hNav1.7 mouse monoclonal antibody, IgG1, k; heavy chain SEQ ID NO: 121, light chain SEQ ID NO: 123 (antibody, V domains shown)
VH: EVKLVESGGGLVKPGGSLKLSCAASGFTFRSYAMSWVRQTPEKGLEWVASISSGGSTYYPDSVKGRFTISRDNAGNILYLQMSSLRSEDTAMYYCARGYDGYYERIWYYAMDYWGQGTSVTVSSAKTTPPSVY
VL: DIVMTQSQKFMSTSVGDRVTVSCKASQNVGTIVAWYQQKPGQSPKALIYSASYRFSGVPDRFTGSGSGTDFTLTISNVQSEDLAEYFCQQYNTYPLTFGSGTKLEIKRADAAPTVSIFPPSS
modifications: Heavy chain of the 1H5 antibody without leader sequence; Light chain of the 1H5 antibody without leader sequence
For the molecule B2, the “Reduction of colony formation” value is given as 37% in the data set with glioblastoma U87MG cells (FIG. 24A), 60% in [6] and 57% in data set [7]. Besides, the “Percentage of effect after injection (on left paw withdrawal)” value is given as 0% in [1] (100 μg intraplantar, 0 h); 21.85% ± 3.71 in data set [1] (100 μg intraplantar, 1 h); 35.23% ± 0.88 in [1] (100 μg intraplantar, 2 h); 31.20% ± 5.18 in data set [1] (100 μg intraplantar, 4 h). This molecule also registered a Latency paw withdrawal in data set [1] (100 μg intraplantar, 1 h) of 7.97 ± 0.61 s. The “Maximum percentage of the effect (% Effect; % MPE)” value in [1] (100 μg intraplantar) is 35.23±0.88%. Further, in the data set with VHH FC5, the “Binding to FC5 control (comment, in words)” value is “No binding”. Also, the “ELISA on live cells (duplicates) CHO-3E7” value is given as −0.014 with CHO-3E7 (duplicate 1) and 0.029 with CHO-3E7 (duplicate 2). For the same molecule, the “Peptide in which the binding motif resides / that is bound” value in [4] was “Pep #3”. In addition, the “Time spent in pain behaviors (saline plus OD1 = 100%)” value in data set [5] is recorded as 73.84%±16.78.
